Literature values, collected in patent publication US20040071657A1, “Chemoattractant recruitment of dendritic cells for enhancement of immunization” (priority 2003, published 2004).

Test system: circulating DC
Conditions: in vivo administration to mice

B1: Flt3-L: Flt3 ligand, a growth factor polypeptide that promotes dendritic cell growth (protein, UniProt P49771 27-235, looked up)
Fms-related tyrosine kinase 3 …: TQDCSFQHSPISSDFAVKIRELSDYLLQDYPVTVASNLQDEELCGGLWRLVLAQRWMERLKTVAGSKMQGLLERVNTEIHFVTKCAFQPPPSCLRFVQTNISRLLQETSEQLVALKPWITRQNFSRCLELQCQPDSSTLPPPWSPRPLEATAPTAPQPPLLLLLLLPVGLLLLAAAWCLHWQRTRRRTPRPGEQVPPVPSPQDLLLVEH
- increase in the number of circulating DC: 10-30 fold
